From doi:10.1101/2022.04.26.489478 come the findings set out here.

For the experiment, the target named is GST-GABARAP (human), O95166. Briefly: microscopy-based on-bead protein-protein interaction assay. The following applies: remark: other sources report otherwise.
GST-GABARAP (human), O95166, sequence (O95166 whole entry): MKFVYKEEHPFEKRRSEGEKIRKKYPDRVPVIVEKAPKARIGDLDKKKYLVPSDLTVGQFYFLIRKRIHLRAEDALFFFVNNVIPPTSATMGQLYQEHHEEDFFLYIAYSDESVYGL

B1: mCherry tagged HsC53^sAIM, Q96JB5 1-506 (natural protein)
chain: MEDHQHVPIDIQTSKLLDWLVDRRHCSLKWQSLVLTIREKINAAIQDMPESEEIAQLLSGSYIHYFHCLRILDLLKGTEASTKNIFGRYSSQRMKDWQEIIALYEKDNTYLVELSSLLVRNVNYEIPSLKKQIAKCQQLQQEYSRKEEECQAGAAEMREQFYHSCKQYGITGENVRGELLALVKDLPSQLAEIGAAAQQSLGEAIDVYQASVGFVCESPTEQVLPMLRFVQKRGNSTVYEWRTGTEPSVVERPHLEELPEQVAEDAIDAGDFGVEAVSEGTDSGISAEAAGIDAGIFPESDSKDPGGDGIDAGDDAVALQITVLEAGTQAPEGVARGPDALTLLEYTETRNQFLDELMELEIFLAQRAVELSEEADVLSVSQFQLAPAILQGQTKEKMVTMVSVLEDLIGKLTSLQLQHLFMILASPRYVDRVTEFLQQKLKQSQLLALKKELMVQKQQEALEEQAALEPKLDLLLEKTKELQKLIEADISKRYSGRPVNLMGTSL
On to B1, for which the percent recruited less than wild type C53 is 78%.
